Values quoted from earlier work as cited in paper PMC5605561.

Target: B2R (Homo sapiens) (UniProt P30411)
Chain of UniProt P30411 (P30411 whole entry): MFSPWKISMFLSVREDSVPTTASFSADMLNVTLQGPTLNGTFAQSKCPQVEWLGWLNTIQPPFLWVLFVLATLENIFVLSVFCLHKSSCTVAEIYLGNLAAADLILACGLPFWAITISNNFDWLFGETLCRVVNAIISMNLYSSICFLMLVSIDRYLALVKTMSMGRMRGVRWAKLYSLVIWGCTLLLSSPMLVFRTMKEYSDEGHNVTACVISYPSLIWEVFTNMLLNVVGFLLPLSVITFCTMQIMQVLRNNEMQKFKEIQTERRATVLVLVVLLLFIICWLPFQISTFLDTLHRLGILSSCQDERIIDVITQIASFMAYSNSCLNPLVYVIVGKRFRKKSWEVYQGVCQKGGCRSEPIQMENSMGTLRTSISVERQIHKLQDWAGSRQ

- Kd: 10 nM
Substance: bradykinin bradykinin (from UniProt P01042)
